From patent US20250145690A1 (US Dept. of Health and Human Services, published 2025)

Tests used:
Test in all cases: bead flow cytometry, AUC minus CD4
[1] = biological target: T1, HCoV-HKU1 spike protein (Sino Biological 40606-V08B) (HCoV-HKU1, UniProt Q0ZME7 13-1295)
T1 sequence: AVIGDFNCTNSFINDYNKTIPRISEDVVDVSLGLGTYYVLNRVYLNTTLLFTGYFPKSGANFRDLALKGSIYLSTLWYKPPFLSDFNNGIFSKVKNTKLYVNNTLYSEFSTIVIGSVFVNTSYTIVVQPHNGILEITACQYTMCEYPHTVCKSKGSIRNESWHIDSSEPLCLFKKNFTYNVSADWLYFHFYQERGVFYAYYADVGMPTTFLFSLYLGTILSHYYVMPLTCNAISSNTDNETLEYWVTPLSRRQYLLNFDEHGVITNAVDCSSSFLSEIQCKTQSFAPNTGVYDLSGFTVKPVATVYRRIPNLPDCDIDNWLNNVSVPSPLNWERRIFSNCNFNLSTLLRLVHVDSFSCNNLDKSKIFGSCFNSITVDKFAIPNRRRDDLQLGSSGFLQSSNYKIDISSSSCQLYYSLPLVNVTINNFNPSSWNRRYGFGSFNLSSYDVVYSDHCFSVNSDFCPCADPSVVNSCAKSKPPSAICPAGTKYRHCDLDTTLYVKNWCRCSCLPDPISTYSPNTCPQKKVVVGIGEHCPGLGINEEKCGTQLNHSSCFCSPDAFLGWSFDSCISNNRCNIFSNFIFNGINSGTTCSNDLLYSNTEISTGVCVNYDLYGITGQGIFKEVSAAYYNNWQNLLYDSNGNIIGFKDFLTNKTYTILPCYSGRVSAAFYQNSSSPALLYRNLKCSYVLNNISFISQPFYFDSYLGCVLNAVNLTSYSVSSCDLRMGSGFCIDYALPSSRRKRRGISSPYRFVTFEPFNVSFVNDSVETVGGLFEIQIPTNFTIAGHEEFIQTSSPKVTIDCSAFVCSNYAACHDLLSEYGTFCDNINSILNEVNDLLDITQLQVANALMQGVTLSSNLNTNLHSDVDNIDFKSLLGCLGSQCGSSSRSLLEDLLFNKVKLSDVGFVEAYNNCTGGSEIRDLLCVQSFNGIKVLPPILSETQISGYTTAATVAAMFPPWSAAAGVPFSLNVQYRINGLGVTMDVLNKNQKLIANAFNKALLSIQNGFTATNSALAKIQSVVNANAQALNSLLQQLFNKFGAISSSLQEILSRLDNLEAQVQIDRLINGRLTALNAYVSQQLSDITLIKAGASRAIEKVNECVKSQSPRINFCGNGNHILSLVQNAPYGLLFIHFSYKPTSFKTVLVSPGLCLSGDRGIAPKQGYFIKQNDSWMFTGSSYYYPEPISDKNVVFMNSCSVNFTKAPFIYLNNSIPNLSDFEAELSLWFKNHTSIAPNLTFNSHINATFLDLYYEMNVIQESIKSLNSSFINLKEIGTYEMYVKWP

[2] = biological target: T2, HCoV-NL63 spike protein (Sino Biological 40604-V08B) (HCoV-NL63, UniProt Q6Q1S2 19-1296)
T2 sequence: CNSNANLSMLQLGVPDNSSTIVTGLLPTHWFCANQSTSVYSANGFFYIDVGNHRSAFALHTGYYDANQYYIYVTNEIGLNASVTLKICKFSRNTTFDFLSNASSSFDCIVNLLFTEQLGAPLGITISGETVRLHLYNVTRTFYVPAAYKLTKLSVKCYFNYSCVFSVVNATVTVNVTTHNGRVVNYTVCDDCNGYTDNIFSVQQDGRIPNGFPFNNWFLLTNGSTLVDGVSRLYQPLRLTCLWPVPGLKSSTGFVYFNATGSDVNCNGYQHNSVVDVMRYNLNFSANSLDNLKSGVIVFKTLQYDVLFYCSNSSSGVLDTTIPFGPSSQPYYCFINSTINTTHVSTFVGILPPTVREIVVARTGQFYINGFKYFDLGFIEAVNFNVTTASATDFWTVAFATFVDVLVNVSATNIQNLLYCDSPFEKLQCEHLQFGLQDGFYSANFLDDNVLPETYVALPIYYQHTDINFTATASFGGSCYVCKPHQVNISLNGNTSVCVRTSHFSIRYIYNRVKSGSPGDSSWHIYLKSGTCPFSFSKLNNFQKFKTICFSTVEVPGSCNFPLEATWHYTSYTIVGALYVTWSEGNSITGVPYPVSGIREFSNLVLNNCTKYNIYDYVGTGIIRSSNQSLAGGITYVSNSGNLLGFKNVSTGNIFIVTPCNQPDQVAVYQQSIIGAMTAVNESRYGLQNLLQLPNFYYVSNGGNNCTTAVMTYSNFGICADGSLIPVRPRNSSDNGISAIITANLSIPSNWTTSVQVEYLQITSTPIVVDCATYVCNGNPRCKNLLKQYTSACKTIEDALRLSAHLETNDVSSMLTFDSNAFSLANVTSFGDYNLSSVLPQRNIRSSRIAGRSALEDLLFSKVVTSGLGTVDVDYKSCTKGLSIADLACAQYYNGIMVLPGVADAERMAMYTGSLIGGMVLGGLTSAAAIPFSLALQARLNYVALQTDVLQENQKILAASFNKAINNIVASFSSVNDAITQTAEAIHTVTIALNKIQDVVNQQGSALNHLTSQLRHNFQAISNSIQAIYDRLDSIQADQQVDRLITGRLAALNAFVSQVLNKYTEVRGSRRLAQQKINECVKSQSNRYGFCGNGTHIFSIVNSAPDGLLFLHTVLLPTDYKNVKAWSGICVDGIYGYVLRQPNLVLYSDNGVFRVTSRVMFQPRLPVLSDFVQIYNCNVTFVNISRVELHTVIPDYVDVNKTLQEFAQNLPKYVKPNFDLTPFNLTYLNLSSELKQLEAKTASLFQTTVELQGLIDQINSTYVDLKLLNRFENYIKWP

[3] = biological target: T3, HCoV-229E spike protein (Sino Biological 40605-V08B) (HCoV-229E, UniProt P15423 16-1115)
T3 sequence: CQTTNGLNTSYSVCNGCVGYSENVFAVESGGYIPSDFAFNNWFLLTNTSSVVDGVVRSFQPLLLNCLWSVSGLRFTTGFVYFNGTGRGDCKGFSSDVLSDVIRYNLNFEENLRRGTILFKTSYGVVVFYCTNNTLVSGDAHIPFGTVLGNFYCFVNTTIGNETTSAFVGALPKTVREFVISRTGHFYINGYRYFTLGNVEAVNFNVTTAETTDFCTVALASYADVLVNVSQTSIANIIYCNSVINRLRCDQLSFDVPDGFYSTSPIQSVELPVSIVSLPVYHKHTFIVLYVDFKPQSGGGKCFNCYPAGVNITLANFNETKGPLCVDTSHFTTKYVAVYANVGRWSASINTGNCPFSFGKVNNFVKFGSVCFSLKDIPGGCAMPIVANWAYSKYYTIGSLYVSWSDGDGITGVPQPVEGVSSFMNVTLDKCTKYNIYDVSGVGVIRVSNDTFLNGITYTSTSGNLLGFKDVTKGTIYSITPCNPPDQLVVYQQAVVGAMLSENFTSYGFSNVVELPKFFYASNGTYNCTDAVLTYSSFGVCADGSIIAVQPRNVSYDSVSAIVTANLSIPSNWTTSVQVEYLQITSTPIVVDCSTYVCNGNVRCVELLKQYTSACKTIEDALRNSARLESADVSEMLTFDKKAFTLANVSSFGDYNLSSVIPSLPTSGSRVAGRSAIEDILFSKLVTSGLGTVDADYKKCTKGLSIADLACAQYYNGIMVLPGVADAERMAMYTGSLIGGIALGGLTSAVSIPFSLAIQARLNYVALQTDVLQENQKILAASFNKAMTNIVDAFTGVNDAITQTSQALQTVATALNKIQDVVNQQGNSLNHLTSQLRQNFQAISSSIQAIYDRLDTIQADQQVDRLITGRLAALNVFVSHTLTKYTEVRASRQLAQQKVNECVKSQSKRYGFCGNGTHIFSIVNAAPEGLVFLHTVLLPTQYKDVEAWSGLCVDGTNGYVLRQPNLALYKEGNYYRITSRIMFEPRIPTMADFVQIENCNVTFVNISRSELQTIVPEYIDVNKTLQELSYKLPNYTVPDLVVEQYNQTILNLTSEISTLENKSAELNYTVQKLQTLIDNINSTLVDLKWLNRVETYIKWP

[4] = biological target: SARS-CoV-2 spike N-terminal domain (NTD), recombinant (SARS-CoV-2, UniProt P0DTC2 14-305)
[5] = biological target: T4, SARS-CoV-2 spike S2 subunit, recombinant (SARS-CoV-2, UniProt P0DTC2 686-1213)
T4 construct: domain: S2 subunit

[6] = biological target: SARS-CoV-2 spike receptor binding domain (RBD), recombinant (SARS-CoV-2, UniProt P0DTC2 319-541)

Measured: binding result

B1: COV44-26 (antibody, V domains shown)
VH: QVQLVQSGAEVKKPGASVKVSCKASGYTFSNFYMNWVRQAPGQGLEWVGLISPSAGYTAYAQMFQGRVTMTRDTSTSTVYMELSSLRSEDTAVYYCARVAVAGPNDYWGQGTLVTVSS
VL: EIVLTQSPGTLSLSPGERATLSCRASQSISSSYLAWYQQKPGQAPRLVIFAASTRATGIPDRFSGSGSGTDFTLTITRLEPEDFALYYCQHYRSSPPLWTFGQGTKVEIR
no binding (tested: 200 µg/mL): [1] | [2] | [3] | [4]

B2: COV89-28 (antibody, V domains shown)
VH: EVQLVESGGGLVQPGRSLRLSCAASGFTFDDYAMHWVRQAPGKGLEWVSSISWNSGSIVYADSVTGRCTITRDNAKNSLYLQMNSLRPEDTALYYCAKGYSSSPVVYYMDVWGKGTTVTVSS
VL: DIQMTQSPSSVSASVGDRVTITCRASQGIAGWFAWYQQKPGKAPKLLIYATSSLQRGVPSRFSGSGSATHFTLTITSLQPEDFATYYCQQANIFGPGTKVDIK
not listed: [1]
no binding (tested: 200 µg/mL): all other assays above
